# B1: 1320 (antibody, V domains shown)
# VH: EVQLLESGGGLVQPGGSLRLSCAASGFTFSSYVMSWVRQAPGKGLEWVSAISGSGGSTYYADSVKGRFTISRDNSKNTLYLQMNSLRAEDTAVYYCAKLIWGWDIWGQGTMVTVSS
# VL: EIVLTQSPATLSLSPGERATLSCRASQSVSSYLAWYQQRPGQAPRLLIYDASNRATGIPARFSGSGSGTDFTLSISSLEPEDFAVYYCQQRTNWSITFGQGTRLEIK
# notes: also called Antibody 1320; Ab 1320
# B2: 1289 (antibody, V domains shown)
# VH: EVQLLESGGGLVQPGGSLRLSCAASGFTFSSFAMSWVRQAPGKGLEWVSAISGSGGSTYYADSVKGRFTISRDNSKNTLSLQMNSLRAEDTAVYYCATPITLVRGVGAFDIWGQGTMVTVSS
# VL: not shown
# notes: the sheets print 1289 only, the text names its one 1289 antibody 1289-02; also called IgG1-6003-1289; Antibody 1289-02
# Biological target: T1, Sortilin SORTECD_HIS (human, UniProt Q99523 78-755)
# T1 construct: also called Sortilin-ECD-His; HIS-tagged Sortilin ECD
# T1 sequence: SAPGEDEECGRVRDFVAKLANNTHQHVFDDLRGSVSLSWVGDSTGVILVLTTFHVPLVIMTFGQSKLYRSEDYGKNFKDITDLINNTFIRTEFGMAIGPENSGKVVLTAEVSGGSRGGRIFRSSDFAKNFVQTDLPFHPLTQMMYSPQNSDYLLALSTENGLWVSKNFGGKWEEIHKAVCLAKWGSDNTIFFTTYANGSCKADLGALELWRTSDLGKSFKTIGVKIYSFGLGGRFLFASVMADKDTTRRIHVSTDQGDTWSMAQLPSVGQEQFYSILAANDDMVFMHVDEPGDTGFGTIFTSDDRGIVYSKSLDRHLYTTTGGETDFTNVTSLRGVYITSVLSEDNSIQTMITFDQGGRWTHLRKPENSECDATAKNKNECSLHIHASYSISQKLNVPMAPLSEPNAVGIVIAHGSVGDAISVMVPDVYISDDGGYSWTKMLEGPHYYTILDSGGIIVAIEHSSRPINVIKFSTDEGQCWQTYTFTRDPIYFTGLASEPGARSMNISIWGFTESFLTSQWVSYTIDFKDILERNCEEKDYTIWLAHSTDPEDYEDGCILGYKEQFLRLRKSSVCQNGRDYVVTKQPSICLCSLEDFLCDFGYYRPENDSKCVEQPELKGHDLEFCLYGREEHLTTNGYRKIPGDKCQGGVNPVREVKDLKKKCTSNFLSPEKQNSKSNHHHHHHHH
# Assay: HTRF, displacement of PGRN from His-tagged Sortilin ECD
# Protocol: Dose-response evaluation of antibodies was performed with ten concentrations covering 50 pM to 1 μM in a 3-fold dilution curve. The half-maximal inhibitory concentration (IC50) values were calculated by non-linear regression using sigmoidal concentration response (variable slope) in XLfit 4 (IDBS, UK).
# Experiments were performed in assay buffer (50 mM Phosphate, pH 7.0, 0.1% BSA) in a total volume of 20 μl in a Greiner 384 well, white, low volume microtiter plate, (784075, Greiner).
binder,measurement,value
B1,% inh highest conc,75%
B2,% inh highest conc,98%
